In patent US20220135701A1 (Genentech, published 2022) one finds Kd data, which are given here for two molecules.

Common to all, as to experiment: SPR BIAcore T200, Ab captured, 25C
(Surface plasmon resonance follows binding to a sensor surface in real time, without labels.)

One assay concerns the target T1, human MerTK (human, UniProt Q12866 26-499).
T1 construct: also called HuMER
T1 sequence: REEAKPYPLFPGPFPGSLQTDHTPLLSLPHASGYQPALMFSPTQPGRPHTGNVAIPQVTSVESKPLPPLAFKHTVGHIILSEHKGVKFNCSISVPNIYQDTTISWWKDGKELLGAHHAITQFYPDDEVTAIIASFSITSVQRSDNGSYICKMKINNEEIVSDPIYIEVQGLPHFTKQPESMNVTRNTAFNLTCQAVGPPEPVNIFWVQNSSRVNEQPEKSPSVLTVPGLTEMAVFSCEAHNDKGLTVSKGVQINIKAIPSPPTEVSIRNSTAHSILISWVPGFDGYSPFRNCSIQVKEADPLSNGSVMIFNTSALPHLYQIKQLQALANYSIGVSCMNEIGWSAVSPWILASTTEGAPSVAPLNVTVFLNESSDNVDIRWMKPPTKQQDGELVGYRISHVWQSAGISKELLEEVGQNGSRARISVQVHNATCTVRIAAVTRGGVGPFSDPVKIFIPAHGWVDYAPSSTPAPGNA
As to the method: (§1) All binding affinity determinations were obtained using Surface Plasmon Resonance (SPR) measurements from a BIAcore™-T200 instrument. Briefly, each rabbit or humanized antibody was captured to achieve approximately 100 RU (Response Units). Then, 3-fold serial dilutions of MerTK from various species (0.4 nM to 100 nM) diluted in HBS-EP buffer (0.01M HEPES pH 7.4, 0.15M NaCl, 3 mM EDTA and 0.05% v/v surfactant P20) was injected into the BIAcore™-T200 instrument at 25° C. or 37° C. with a flow rate of 30 μl/min. Association rates (kₒₙ) and dissociation rates (koff) were calculated using a simple one-to-one Langmuir binding model (BIAcore T200 evaluation software version 2.0). The equilibrium dissociation constant (KD) was calculated as the ratio koff/kₒₙ.

A further assay addresses T2, cynomolgus monkey MerTK (cynomolgus monkey, UniProt A0A2K5V1H9 32-505).
T2 construct: Soluble analyte in SPR; also called Cyno MerTK
T2 sequence: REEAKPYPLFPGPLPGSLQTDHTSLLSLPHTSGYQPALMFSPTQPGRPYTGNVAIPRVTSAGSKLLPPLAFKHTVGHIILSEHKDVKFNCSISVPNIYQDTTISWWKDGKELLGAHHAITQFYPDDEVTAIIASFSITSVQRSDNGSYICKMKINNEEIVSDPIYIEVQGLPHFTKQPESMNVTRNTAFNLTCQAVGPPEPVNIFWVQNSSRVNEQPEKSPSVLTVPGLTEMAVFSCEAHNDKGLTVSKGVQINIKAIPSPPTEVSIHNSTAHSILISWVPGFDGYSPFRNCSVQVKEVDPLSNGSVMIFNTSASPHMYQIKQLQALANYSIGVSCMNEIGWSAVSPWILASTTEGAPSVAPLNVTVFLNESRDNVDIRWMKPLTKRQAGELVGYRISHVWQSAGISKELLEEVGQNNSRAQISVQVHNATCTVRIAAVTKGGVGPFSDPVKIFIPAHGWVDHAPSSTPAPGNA
The method, then:
as §1

A further assay deals with T3, mouse MerTK (mouse, UniProt Q60805 23-496).
T3 construct: also called MuMER
T3 sequence (looked up): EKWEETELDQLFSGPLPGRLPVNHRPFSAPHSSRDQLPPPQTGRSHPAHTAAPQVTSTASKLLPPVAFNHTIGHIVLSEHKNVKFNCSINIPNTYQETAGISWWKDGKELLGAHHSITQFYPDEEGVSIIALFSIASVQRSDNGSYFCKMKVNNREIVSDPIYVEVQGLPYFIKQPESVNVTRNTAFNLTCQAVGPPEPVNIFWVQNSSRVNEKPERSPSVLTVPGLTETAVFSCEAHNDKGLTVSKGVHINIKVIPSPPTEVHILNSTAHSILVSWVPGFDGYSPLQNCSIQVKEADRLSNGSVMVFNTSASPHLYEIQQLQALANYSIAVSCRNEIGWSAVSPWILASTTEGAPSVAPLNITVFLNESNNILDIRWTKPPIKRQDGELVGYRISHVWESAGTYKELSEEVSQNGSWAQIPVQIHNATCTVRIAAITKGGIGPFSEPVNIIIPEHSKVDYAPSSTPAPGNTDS
As to the method:
as §1

The target of another assay is T4, HuMER (R26-A499) (human, UniProt Q12866 26-499).
T4 construct: Extracellular domain with both Ig-like and both fibronectin-like domains; also called human MerTK extracellular domain
T4 sequence: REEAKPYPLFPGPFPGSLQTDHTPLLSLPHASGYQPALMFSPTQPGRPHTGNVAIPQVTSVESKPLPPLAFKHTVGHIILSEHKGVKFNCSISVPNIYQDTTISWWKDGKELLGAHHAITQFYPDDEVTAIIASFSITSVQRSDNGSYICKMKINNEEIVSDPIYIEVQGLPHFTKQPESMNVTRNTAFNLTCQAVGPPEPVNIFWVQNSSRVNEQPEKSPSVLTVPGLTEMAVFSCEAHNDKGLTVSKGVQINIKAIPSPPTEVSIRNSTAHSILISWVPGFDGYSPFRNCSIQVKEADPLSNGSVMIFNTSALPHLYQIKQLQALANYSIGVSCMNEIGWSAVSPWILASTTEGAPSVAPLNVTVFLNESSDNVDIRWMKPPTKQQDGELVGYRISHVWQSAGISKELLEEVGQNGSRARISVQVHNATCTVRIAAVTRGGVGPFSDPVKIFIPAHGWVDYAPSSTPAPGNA
As to the method:
(§2) Binding affinity determinations were obtained using Surface Plasmon Resonance (SRP) measurements from a BIAcore™-T200 instrument. Briefly, each rabbit antibody was captured to achieve approximately 100 RU (Response Units). Then, 3-fold serial dilutions of the various MerTK domains (0.4 nM to 100 nM) diluted in HBS-EP buffer (0.01M HEPES pH 7.4, 0.15M NaCl, 3 mM EDTA and 0.05% v/v surfactant P20) was injected into the BIAcore™-T200 instrument at 25° C. or 37° C. with a flow rate of 30 μl/min. Association rates (kₒₙ) and dissociation rates (koff) were calculated using a simple one-to-one Langmuir binding model (BIAcore T200 evaluation software version 2.0). The equilibrium dissociation constant (KD) was calculated as the ratio koff/kₒₙ.
(§3) Antibody epitope determination was assessed by BIAcore analysis for rabbit antibodies binding against both the human and mouse MerTK extracellular domain (HuMER R26-A499 and MuMER E23-S496), Ig1&2 domain, Ig1-only domain, and Ig2-only domain (TABLE 18). Human MerTK and its domains are shown in light gray, while mouse MerTK and its domains are shown in dark gray.

A further assay concerns the target T5, MuMER (E23-S496) (mouse, UniProt Q60805 23-496).
T5 construct: range 23-496; also called mouse MerTK extracellular domain
T5 sequence (looked up): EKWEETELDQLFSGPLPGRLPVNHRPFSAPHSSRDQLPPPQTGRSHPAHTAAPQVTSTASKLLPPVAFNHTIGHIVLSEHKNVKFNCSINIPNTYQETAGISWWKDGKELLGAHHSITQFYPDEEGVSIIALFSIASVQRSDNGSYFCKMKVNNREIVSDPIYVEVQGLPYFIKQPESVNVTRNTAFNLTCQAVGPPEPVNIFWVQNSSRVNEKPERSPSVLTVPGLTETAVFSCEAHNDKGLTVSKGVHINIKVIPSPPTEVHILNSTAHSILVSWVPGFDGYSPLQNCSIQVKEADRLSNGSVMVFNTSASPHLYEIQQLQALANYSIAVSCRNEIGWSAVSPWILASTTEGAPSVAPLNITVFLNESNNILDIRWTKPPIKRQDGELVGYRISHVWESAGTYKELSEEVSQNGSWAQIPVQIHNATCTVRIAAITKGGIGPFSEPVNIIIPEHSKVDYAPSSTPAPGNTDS
The method, then: as §2, §3

B1: Rbt13D8 (antibody, V domains shown)
VH: QSLEESGGRLVTPGTPLTLTCTVSGFSFSSYSMGWVRQAPGKGPEYIGVISASGTTYYASWVNGRFTISKTSTTMDLKMTSPTAADTATYFCARAAFTAYNRGSCVIHRLDLWGQGTLVTVSS
VL: AQVLTQTASSVSAAVGGTVTINCQASQSVYDSKWLAWYQQKPGQPPKLLIYSASTLASGVPSRFKGSGSGTQFTLTISDLECDDAATYYCAGAYTDNIVFGGGTEVVVK
notes: Recombinant rabbit monoclonal antibody, Expi293, protein A purified
On to B1, for which the Kd with human MerTK is 4.3 nM; with cynomolgus monkey MerTK, 3.8 nM; with mouse MerTK, 1.2 nM; in the assay with HuMER (R26-A499), 4.3 nM; in the assay with MuMER (E23-S496), 1.2 nM.

B2: Rbt22C4 (antibody, V domains shown)
VH: QSVEESGGRLVTPGTPLTLTCTVSGFSLSTYSMSWVRQAPGKGLEWLGIVSVAIDPVYATWARGRFTISRTSTTVNLKITSPTTEDTATYFCVRVAFSTNGIPHRLDLWGQGTLVTVSS
VL: AQVLTQTASSVSAAVGGTVTISCQSSPSVYNHNWLSWYQQKPGQPPKLLIYEASKLASGVPSRFSGSGSGTQFTLTISDVQCDEAATYYCAGGFSSGSDSFAFGGGTEVVVT
notes: as for B1
Take B2: the Kd with human MerTK worked out at 94 nM; with cynomolgus monkey MerTK, 82.2 nM; with mouse MerTK it was 2.2 nM; with HuMER (R26-A499) it was 94 nM; with MuMER (E23-S496) it was 2.2 nM.

As a reminder, the Kd is the free concentration of one partner at which half of the binding sites on the other are occupied at equilibrium, for simple one-to-one binding.
